# Results taken from the RNAGym collection of RNA variant scans (doi:10.1021/acssynbio.7b00057).
# B1: Pistol ribozyme (parent)
# chain: GGGUCGUUGUUCCAUAAUCGCGUGGAUAUGGCACGCAAGUUUCUACCGGGCACCGUAAAUGUCCGACUGGAGCCGUUCGGGCGGCUAUAAACAGACCUCAGGCCCGAAGCGUGGCGGCACCUGCCGCCGGUGGUAAAAAAGAUCGGAAGAGCACACGUCU
# Variants of: B1
# Experiment: aptazyme ON/OFF ratio, guanine; higher = stronger switching; co-transcriptional cleavage with and without guanine
row,Variant,aptazyme ON/OFF ratio
1,U8C U10C U11A C12U C13G,1.23
2,U8C U10C U11A C12U C13U,1.35
3,U8C U10C U11A C12U C13A,1.26
4,U8C G9U U10A U11C C12G,1.21
5,U8C G9U U10A U11C C12U,1.11
6,U8C U10G C12A,1.12
7,U8C U10C U11G C12A C13A,1.17
8,U8C U10C U11G C12A C13U,1.33
9,U8C U10C U11G C12A C13G,1.21
10,U8C U10A U11G C12G C13G,1.39
11,U8C U10A U11G C12G C13A,1.43
12,U8C U10A U11G C12G C13U,1.28
13,U8C U10A U11A C12A C13A,1.19
14,U8C U10A U11A C12A C13G,1.07
15,U8C U10A U11A C12A C13U,1.12
16,U8C G9U U10G U11C C13U,1.11
17,U8C G9U U10G U11C C13G,1.04
18,U8C G9U U10G U11C C13A,1.24
19,U8C G9U U10C U11G C12A C13G,1.17
20,U8C G9U U10C U11G C12A C13U,1.12
21,U8C G9U U10C U11G C12A C13A,1.19

row,Variant,aptazyme ON/OFF ratio
1,U8C U10C U11C C13A,1.08
2,U8C U10C U11C C13G,1.19
3,U8C U10C U11C C13U,1.08
4,U8C U10A U11G C12A,1.06
5,U8C U10A U11G C12G,1.31
6,U8C U10A U11G C12U,1.33
7,U8C G9U U10G U11C C12G C13G,1.26
8,U8C G9U U10G U11C C12G C13U,1.2
9,U8C G9U U10G U11C C12G C13A,1.22
10,U8C G9U U10A U11G C12A C13U,1.26
11,U8C G9U U10A U11G C12A C13A,1.14
12,U8C G9U U10A U11G C12A C13G,1.13
13,U8C G9U U10C U11C C12U C13U,1.07
14,U8C G9U U10C U11C C12U C13G,1.05
15,U8C G9U U10C U11C C12U C13A,1.07
16,U8C U10C U11C C12A C13U,1.36
17,U8C U10C U11C C12A C13G,1.33
18,U8C U10C U11C C12A C13A,1.32
19,U8C U10A U11C C13G,1.04
20,U8C U10A U11C C13U,1.03
21,U8C U10A U11C C13A,1.02

row,Variant,aptazyme ON/OFF ratio
1,U8C G9U U10C U11G C12G,1.12
2,U8C G9U U10C U11G C12U,1.22
3,U8C G9U U10C U11G C12A,1.07
4,U8C G9U U10C U11A C12A C13U,1.11
5,U8C G9U U10C U11A C12A C13G,1.08
6,U8C G9U U10C U11A C12A C13A,1.09
7,U8C G9U U10C U11C C12G C13G,1.15
8,U8C G9U U10C U11C C12G C13U,1.07
9,U8C G9U U10C U11C C12G C13A,1.06
10,U8C G9U U10A U11G C12U C13A,1.12
11,U8C G9U U10A U11G C12U C13G,1.14
12,U8C G9U U10A U11G C12U C13U,1.2
13,U8C U10C U11A C12G,1.35
14,U8C U10C U11A C12U,1.39
15,U8C U10C U11A C12A,1.34
16,U8C U10A C12U C13U,1.32
17,U8C U10A C12U C13G,1.11
18,U8C U10A C12U C13A,1.14
19,U8C G9U U10C C12G C13U,1.24
20,U8C G9U U10C C12G C13A,1.12
21,U8C G9U U10C C12G C13G,1.19

row,Variant,aptazyme ON/OFF ratio
1,U8C U10A U11C C12G C13A,1.16
2,U8C U10A U11C C12G C13U,1.2
3,U8C U10A U11C C12G C13G,1.38
4,U8C U10G,1.76
5,U8C U10C,2.68
6,U8C U10A,1.1
7,U8C G9U U11A C12A C13U,1.34
8,U8C G9U U11A C12A C13G,1.16
9,U8C G9U U11A C12A C13A,1.26
10,U8C G9U U10G U11A C12A C13G,1.17
11,U8C G9U U10G U11A C12A C13A,1.44
12,U8C G9U U10G U11A C12A C13U,1.72
13,U8C U10C U11G C13G,1.14
14,U8C U10C U11G C13U,1.28
15,U8C U10C U11G C13A,1.26
16,U8C G9U U10G C12A C13G,1.13
17,U8C G9U U10G C12A C13A,1.48
18,U8C G9U U10G C12A C13U,1.57
19,U8C G9U U11G C13A,1.24
20,U8C G9U U11G C13U,1.23
21,U8C G9U U11G C13G,1.02
